Data published in patent publication US20080113907A1, “Uses Of Galectin-2” (Charite-Universitat-Smedizin Berlin, priority 2004, published 2008).

Assays:
[1] = test system: chronic DSS colitis; experiment: Therapy of chronic DSS colitis, disease activity index (DAI); format: in vivo, Balb/c mice; settings: control 5.3 ± 0.7
Text: Colitis was induced in 30 8- to 10-week-old, female, Balb/c mice (Jackson Laboratories, Bar Harbor, Me.) by adding 5% DSS (Sigma Chemical Co., St. Louis, Mo.) (Dextran Sodiumsulfate (DSS) to their drinking water for the period of seven days and allowing them to drink ad libitum. At the 8th day DSS administration was stopped for another seven days. This scheme of DSS administration for seven days followed by a period of seven days pure water administration was repeated as shown in FIG. 15B. At the 29th day 20 mice were treated with Galectin-2 intraperitoneally (i.p.) parallel to DSS administration. In one trial of this treatment a group of 10 mice were treated with 2 mg/kg Galectin-2 once a day and in another trial the same total dose was distributed in two administrations for a group of ten mice, e.g. 10 mice were treated with respectively 1 mg/kg Galectin-2 twice a day. Parallel a group of 10 mice was treated with 0,9% NaCl instead of Galectin-2 as control. At the 8th day the Galectin-2 treatment was stopped. Parallel to the treatment mice were weighed and inspected for diarrhea and rectal bleeding. After stopping the treatment mice were killed, their entire colon was resected, and its length was measured and weighed. The disease activity index (DAI; i.e., the combined score of weight loss and bleeding) was determined according to a standard scoring system […]

[2] = test system: CD3, CD7, β1 integrin; experiment: Magnetic separation / co-immunoprecipitation of galectin containing complexes; format: binding, human; settings: galectin coated beads, immunoblot for CD3, CD7, β1
Procedure: For immunoblotting cells were washed in PBS, and lysed in cell lysis buffer (1% Triton-X, 0.5% NP-40, 0.1% SDS, 0.5% sodium deoxycholate, 5 mM EDTA, 50 mM and 50 mM protease- and phosphatase-inhibitor cocktail 2, 1 mM PMSF, 100 μg/ml trypsin-chymotrypsin inhibitor, 100 μg/ml chymostatin in PBS). The concentration of proteins in each lysate was measured using the Bio-Rad protein assay (Bio-Rad Laboratories, Hercules, Calif.). Equivalent amounts of protein (10 μg) were fractionated on a 10-20% Tris-glycine gel and electrotransferred to a nitrocellulose membrane (Novex, San Diego, Calif.). Membranes were blocked with 5% milk in 0.1% Tween 20-PBS (Fisher Scientific, Hanover Park, Ill.), followed by incubation for 60 m in at room temperature with the indicated primary antibody. The membranes were washed six times with 0.1% Tween 20-PBS and then incubated for 1 h with the appropriate horseradish peroxidase-conjugated secondary antibody (Santa Cruz Biotechnology), washed, and incubated with the chemiluminescent substrate (Perkin-Elmer, Carlsbad, Calif.) for 5 minutes. The membranes were then exposed to film (Amersham, Arlington Heights, Ill.). […]

[3] = test system: caspase-3; experiment: Caspase activity by flow cytometry; format: cell-based, human; settings: anti-CD3 activated PBT, 50 μg/ml, 24 h
Procedure: (§1) To measure caspase activity, 5×10^5 PBT were incubated in the presence or absence of 50 μg/ml galectin-2 together with derivates of the PE-labelled affinity purified anti-caspase-3 Ab (BD Pharmingen), the carboxyfluorescein-labelled caspase-8 inhibitor FAM-LETD-fmk or caspase-9 inhibitor FAM-LEHD-fmk (both from Biocharta, Hamburg, Germany), all binding irreversibly to activated caspase-3, -8 or -9, respectively. Cells were than analyzed by flow cytometry (FACS-Calibur, BD) and the increase of caspase activity determined after proper gating in correlation to untreated cells.

[4] = test system: caspase-9; experiment: Caspase activity by flow cytometry; format: cell-based, human; settings: anti-CD3 activated PBT, 50 μg/ml, 24 h
Procedure: as §1

[5] = test system: PBT; experiment: Analysis of T cell cycling (DNA content, cyclin B1, cell cycle regulators); format: cell-based, human
Procedure: For immunoblotting cells were washed in PBS, and lysed in cell lysis buffer (1% Triton-X, 0.5% NP-40, 0.1% SDS, 0.5% sodium deoxycholate, 5 mM EDTA, 50 mM and 50 mM protease- and phosphatase-inhibitor cocktail 2, 1 mM PMSF, 100 μg/ml trypsin-chymotrypsin inhibitor, 100 μg/ml chymostatin in PBS). The concentration of proteins in each lysate was measured using the Bio-Rad protein assay (Bio-Rad Laboratories, Hercules, Calif.). Equivalent amounts of protein (10 μg) were fractionated on a 10-20% Tris-glycine gel and electrotransferred to a nitrocellulose membrane (Novex, San Diego, Calif.). Membranes were blocked with 5% milk in 0.1% Tween 20-PBS (Fisher Scientific, Hanover Park, Ill.), followed by incubation for 60 m in at room temperature with the indicated primary antibody. The membranes were washed six times with 0.1% Tween 20-PBS and then incubated for 1 h with the appropriate horseradish peroxidase-conjugated secondary antibody (Santa Cruz Biotechnology), washed, and incubated with the chemiluminescent substrate (Perkin-Elmer, Carlsbad, Calif.) for 5 minutes. The membranes were then exposed to film (Amersham, Arlington Heights, Ill.).
Flow cytometry was performed after staining for DNA content, and cyclin B1, essentially as previously described (21). Briefly, cells were washed twice with PBS, adjusted to 1×10^6 cells/sample and fixed in 90% Methanol at −20° C. After fixation, cells were washed twice with PBS, incubated for 45 min at 4° C. with a cyclin B1-FITC conjugated monoclonal antibody. After the final wash, cells were resupended in PBS and 5 μl of RNase (0.6 μg/ml, 30-60 Kunitz Units, Sigma), incubated at 37° C. for 15 min and the chilled on ice. One hundred and twenty five microliters of PI (200 μg/ml) were added prior to analysis by flow cytometry. Each analysis was performed on at least 25.000 events.

[6] = test system: T cells (PBT, LPT); experiment: Integrin accessibility on T cell surface (flow cytometry); format: cell-based, human
Procedure: For surface staining, cells were washed twice in ice-cold PBS and 1×10^6 cells were resuspended in flow buffer (HBSS containing 1% BSA and 0.1% sodium azide). Cells were incubated with the respective mAb at predetermined saturating concentrations or with isotype-matched nonspecific mouse mAb (DAKO) for 30 min at 4° C., washed twice with flow buffer, and incubated with FITC-conjugated goat anti-mouse IgG for 30 min at 4° C. The cells were again washed twice with flow buffer, fixed in 1% paraformaldehyde and analyzed by a single laser flow cytometer (FacsCalibur, […]), using Cell Quest software (BD Pharmingen). Cells stained with a negative control Ab were gated to contain <2% positive cells. To perform analysis of intracellular proteins, cells were washed twice with PBS, adjusted to 1×10^6 cells per sample, and fixed in 90% methanol at −20° C. After fixation, cells were washed twice with PBS and incubated with a monoclonal mouse anti-bax, Bcl-2, Rb, Cyclin A, p21, p27, or p53 antibody for 45 minutes at 4° C., followed by an incubation with a goat anti-mouse FITC-conjugated mAb (Biosource) for 45 minutes at 4° C. Thereafter cells were washed and analyzed by flow cytometry as described above. The background level of immunofluorescence was determined by incubating cells with FITC-conjugated mouse IgG (isotype control).

B1: galectin-2: β-galactoside binding lectin, non-covalent dimer with subunits of about 14 kDa; recombinant human or rat (SEQ ID NO:1, 2) (protein)
chain: MAGELEVKNMDMKPGSTLKITGSIADGTDGFVINLGQGTDKLNLHFNPRFSESTIVCNSLDGSNWGQEQREDHLCFSPGSEVKFTVTFESDKFKVKLPDGHELTFPNRLGHSHLSYLSVRGGFNMSSFKLKE
DAI (disease activity index) ([1]; 1 × 2 mg/kg i.p. once a day): 4.5 ± 0.6, | DAI (disease activity index) ([1]; 2 × 1 mg/kg i.p. twice a day): 2.8 ± 0.3, | glycoproteins co-immunoprecipitated [2]: coimmunoprecipitate only with integrin β1 | caspase-3 activity [3]: significant increase | caspase-9 activity [4]: significant increase | cyclin B1 levels / cell cycle progression ([5]; anti-CD3 activated PBT): unchanged cyclin B1 levels | cell cycle phase distribution ([5]; anti-CD3 activated PBT, 25, 50, 100 μg/ml): comparable | protein levels of cyclin D2, Rb, cyclin A, p21, p27, p53 ([5]; western blot, 72 h): did not alter protein levels | β4 integrin accessibility ([6]; CD3 activated PBT): neither galectin-1 nor galectin-2 changed | integrin α5 accessibility ([6]; CD3 activated PBT, 50 μg/ml): downregulated | integrin β1 accessibility ([6]; CD3 activated PBT, 50 μg/ml): downregulated | integrin a5 accessibility ([6]; CD3 activated PBT, second statement): slightly upregulated | integrin β1 accessibility ([6]; intestinal T cells (LPT)): failed to modulate
